Read-outs that look alike come from different tables or passages of the source.

Test [1] has as its target T1, human IL-17A (human, UniProt Q16552 24-155). Nature of the test: cell-based or functional assay.
The target in test [2] is T1, human IL-17A. Nature of the test: hIL17A ELISA.
Test [3] addresses T1, human IL-17A. Put plainly: cell-based or functional assay. This is another data set of the same source.
Test [4] addresses T2, cynomolgus monkey IL-17A (cynomolgus monkey, UniProt A0A2K5TTB0 24-155). Nature of the test: cell-based or functional assay.
Test [5] concerns the target T1, human IL-17A. Put plainly: SPR (Biacore 3000), antibody captured by anti-Fc, antigen in solution.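 Note: purified recombinant IL-17 antigens flowed over captured antibodies in HBS-EP buffer, global Langmuir one-to-one fit of association and dissociation phases, KD derived from koff over kon.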 In general terms: Surface plasmon resonance follows binding to a sensor surface in real time, without labels.
Another test addresses T3, human IL-17A/F (human, UniProt Q16552 24-155; Q96PD4 31-163).
T3 construct: Recombinant; biotinylated in the ELISA; also called hIL-17A/F; HuIL-17A/F
The description is as above.

Test [6] has as its target T2, cynomolgus monkey IL-17A. Described as above.
For another test, the target named is T4, rat IL-17A (rat, UniProt Q61453 18-150, limits assumed).
T4 construct: Purified recombinant protein in SPR
T4 sequence (looked up): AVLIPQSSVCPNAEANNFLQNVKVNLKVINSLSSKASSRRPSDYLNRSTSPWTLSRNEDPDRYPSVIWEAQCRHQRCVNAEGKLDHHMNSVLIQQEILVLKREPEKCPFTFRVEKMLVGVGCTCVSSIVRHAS
The description is as above.

The next test has as its target T5, mouse IL-17A (mouse, UniProt Q62386 26-158, limits assumed).
T5 construct: Purified recombinant protein in SPR; also called MuIL-17A; murine IL-17A
T5 sequence (looked up): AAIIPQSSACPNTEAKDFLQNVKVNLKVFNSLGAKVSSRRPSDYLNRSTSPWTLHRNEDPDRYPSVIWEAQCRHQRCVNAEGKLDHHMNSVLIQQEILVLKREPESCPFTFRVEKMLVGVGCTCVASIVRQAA
The test is described as above.

T2 sequence (A0A2K5TTB0 entry or part of it): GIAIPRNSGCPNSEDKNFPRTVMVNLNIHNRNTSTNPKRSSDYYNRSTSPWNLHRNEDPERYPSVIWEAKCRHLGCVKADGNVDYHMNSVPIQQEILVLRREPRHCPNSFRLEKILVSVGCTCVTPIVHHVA
T3 sequence (Q16552 24-155, chain 1 of 2): as the sequence (A0A2K5TTB0 entry or part of it) above, with A3T, S8P, S34N, V77I, K78N, R104P counted along it
T3 sequence (Q96PD4 31-163, chain 2 of 2): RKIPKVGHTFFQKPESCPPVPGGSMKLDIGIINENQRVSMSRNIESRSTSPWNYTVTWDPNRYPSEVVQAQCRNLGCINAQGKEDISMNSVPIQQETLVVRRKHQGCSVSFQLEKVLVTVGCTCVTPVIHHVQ
T1 sequence (Q16552 24-155): as the sequence (A0A2K5TTB0 entry or part of it) above, with A3T, S8P, S34N, V77I, K78N, R104P counted along it

B1: ML109-8B12 (antibody, V domains shown)
VH: QVQLKESGPGLVAPSQSLSITCTISGFSLTSYGVHWVRQPPGKGLEWLVVIWSDGTTTYNSALKSRLSITRDNSKSQVFLKMNSLQTDDTAIYYCARDSTWDYYYTMDYWGQGTPVTVSS
VL: DVVMTQTPLSLPVSLGDQASISCRSSQSLVHSNGNTYLHWYLQKPGQSPKLLIYKVSNRFSGVPDRFSGSGSGTDFTLKISRVEAEDLGVYFCSQSTHVYTFGGGTKLEIKR
For the molecule B1, the “Potency (pM), IL-17-driven IL-6 production in HS27 cells” value (“Potency (pM)” for short) in the test with human IL-17A [1] was found to be 137 pM.

B2: ML109-7D7 (antibody, V domains shown)
VH: QVQLQQSGAELVRPGTSVTLSCKASGYRFTDYEIHWIKQTPAQVLEWIGVTDPESGGTLHNPKFDGKATLTADKSSRTAYMELRSLTSEDSAVYYCTRYYKYESFYGMDYWGQGTSVTVSS
VL: QIVLTQSPAIMSAFPGEKVTMTCSASSSISYMCWYQQKPGTSPKRWICDTSKLASGVPVRFSGSGSGTSYSLTINSMETEDAATYYCQQRSSYPWTFGGGTKVEIKR
With B2, the “Potency (pM)” value in the test with human IL-17A [1] is 81 pM.

B3: ML109-10G9 (antibody, V domains shown)
VH: QVQLKESGPALVAPSQSLSFTCTISGFSLSSYGVHWVRQPPGKGLEWLVVIWSDGTTTYNSALKSRLSISKDNSKSQVFLKMNSLQTDDTAMYYCARDGYYIYTMDYWGQGTSVTVSS
VL: DVVMTQTPLSLPVSLGDQASISCRSSQSLVHSNGNTYLHWYLQRPGQSPKLLIYKVSNRFSGVPDRFSGSGSGTDFTLKISRVEAEDLGLYFCSQGTHAPLTFGAGTKLELNR
B3: the “Potency (pM)” value with human IL-17A [1] is 131 pM.

B4: ML109-1D8 (antibody, V domains shown)
VH: QVQLQQSGAELVRPGASVKLSCKASGYTFSDYEMHWVKQTPVHGLEWIGVIHPGNGGTAYNQKFRDKATLTADKSSTTAYMELSSLTSEDSAVYYCIRFLTYEGYFDYWGQGTTLTVSS
VL: SIVMTQTPKFLLVSAGDRVTITCKASQSVNNDVAWFQHKPGQSPKLLINYASNRYTGVPDRFTGSGYGTDFTFTISTVQSEDLAIYFCQQDYGSPYTFGGGTTLEIKR
As for B4, the “Potency (pM)” value in the test with human IL-17A [1] is 62 pM.

B5: ML109-5C5 (antibody, V domains shown)
VH: QVQLQQSGAELVRPGASVKLSCKALGYTFTDYEFHWVKQTPVHGLEWIGVIHPGNGGTAYNQNFRDKATLTADKSSSTAYMELSSLTSEDSGVYYCTRFLTYEGYFDYWGQGTALTVSS
VL: NIVMTQTPKFLLVSPGDRVTITCKASQSVSIDVGWFQQKPGQSPKLLIYHASNRYTGVPDRFTGSGYGTDFTFTVNTVQAEDLAVYFCQQDYSSPYTFGGGTKLELKR
As to B5, in the test with human IL-17A [1], the “Potency (pM)” value worked out at 23 pM.

B6: IL17-h10F7.9 (antibody, V domains shown)
VH: QVQLQQSGAELVRPGTSVTLSCKASGYIFTDYEIHWVKQTPVHGLEWIGVNDPESGGTFYNQKFDGKAELTADKSSSTAYMELRSLTSEDSGVYYCTRYYRYESFYGMDYWGQGTSITVSS
VL: EIVLTQSPDFQSVTPKEKVTITCSASSSISYIYWFQQKPDQSPKRWIYATFELASGVPSRFSGSGSGTDYTLTINSLEAEDAATYYCHQRSSYPWTFGQGTKLEIKR
notes: IgG; constant regions not specified
Regarding B6, the EC50 in the test with human IL-17A [2] was 0.04 nM. For the same molecule, in the test with human IL-17A [3], the “Potency (pM)” value was 293 pM.

B7: m10F7hIgG1 (antibody, V domains shown)
VH: QVQLQQSGAELVRPGTSVTLSCKASGYIFTDYEIHWVKQTPVHGLEWIGVNDPESGGTFYNQKFDGKAELTADKSSSTAYMELRSLTSEDSGVYYCTRYYRYESFYGMDYWGQGTSITVSS
VL: QIVLTQSPAIMSASPGEKVTMTCSASSSISYIYWFQQKPGTSPKRWIYATFELASGVPARFSGSGSGTSYSLTISSMEAEDAATYYCHQRSSYPWTFGGGSKLEIKR
As to B7, the “Potency (pM)” value came out at 40 pM with human IL-17A [3] and 79 pM with cynomolgus monkey IL-17A [4].

B8: IL17-h10F7.6 (antibody, V domains shown)
VH: EVQLVQSGAEVKKPGSSVKVSCKASGYTFTDYEIHWVRQAPGQGLEWIGVNDPESGGTFYNQKFDGRATLTADKSTSTAYMELSSLRSEDTAVYYCTRYYRYESFYGMDYWGQGTTVTVSS
VL: DIQLTQSPSSLSASVGDRVTITCSASSSISYIYWFQQKPGKSPKRWIYATFELASGVPSRFSGSGSGTDYTLTISSLQPEDFATYYCHQRSSYPWTFGQGTKLEIKR
notes: IgG; constant regions not specified; also called h10F7.6 (VH.1a-Vk.1a)
Molecule B8 had an EC50 with human IL-17A [2] of 0.05 nM. For the same molecule, the “Potency (pM)” value with human IL-17A [3] came out at 264 pM; with cynomolgus monkey IL-17A [4] it was 313 pM. The Kd was 0.302 nM with human IL-17A [5]; 1.14 nM with human IL-17A/F; 0.217 nM in the test with cynomolgus monkey IL-17A [6]; 0.919 nM with rat IL-17A; 0.98 nM with mouse IL-17A. Moreover, the koff was determined as 0.000185 s⁻¹ in the test with human IL-17A [5]; 0.000696 s⁻¹ with human IL-17A/F; 0.000154 s⁻¹ with cynomolgus monkey IL-17A [6]; 0.000454 s⁻¹ in the test with rat IL-17A; 0.000384 s⁻¹ with mouse IL-17A. The on-rate constant (kon) with human IL-17A [5] was 612000 M⁻¹ s⁻¹; with human IL-17A/F it was 609000 M⁻¹ s⁻¹; in the test with cynomolgus monkey IL-17A [6], 711000 M⁻¹ s⁻¹; with rat IL-17A, 494000 M⁻¹ s⁻¹; in the test with mouse IL-17A, 392000 M⁻¹ s⁻¹.

B9: IL17-h10F7.17 (antibody, V domains shown)
VH: EVQLVQSGAEVKKPGSSVKVSCKASGYTFTDYEIHWVRQAPGQGLEWIGVNDPESGGTFYNQKFDGRATLTADKSTSTAYMELSSLRSEDTAVYYCTRYYRYESFYGMDYWGQGTTVTVSS
VL: QIVLTQSPDFQSVTPKEKVTITCSASSSISYIYWFQQKPDQSPKRWIYATFELASGVPSRFSGSGSGTDYTLTINSLEAEDAATYYCHQRSSYPWTFGQGTKLEIKR
notes: as for B6
B9: the 50% effective concentration (EC50) in the test with human IL-17A [2] turned out to be 0.1 nM. In addition, the “Potency (pM)” value amounted to 510 pM in the test with human IL-17A [3] and 293 pM in the test with cynomolgus monkey IL-17A [4].

B10: IL17-h10F7.15 (antibody, V domains shown)
VH: EVQLVQSGAEVKKPGSSVKVSCKASGYTFTDYEIHWVRQAPGQGLEWIGVNDPESGGTFYNQKFDGRATLTADKSTSTAYMELSSLRSEDTAVYYCTRYYRYESFYGMDYWGQGTTVTVSS
VL: EIVLTQSPSSLSASVGDRVTITCSASSSISYIYWFQQKPGKSPKRWIYATFELASGVPSRFSGSGSGTDYTLTISSLQPEDFATYYCHQRSSYPWTFGQGTKLEIKR
notes: as for B6
Molecule B10 gave a concentration for a half-maximal effect (EC50) with human IL-17A [2] of 0.14 nM. For the same molecule, the “Potency (pM)” value with human IL-17A [3] is 309 pM; with cynomolgus monkey IL-17A [4], 499 pM.

B11: IL17-h10F7.11 (antibody, V domains shown)
VH: EVQLVQSGAEVKKPGSSVKVSCKASGYTFTDYEIHWVRQAPGQGLEWIGVNDPESGGTFYNQKFDGRATLTADKSTSTAYMELSSLRSEDTAVYYCTRYYRYESFYGMDYWGQGTTVTVSS
VL: EIVLTQSPDFQSVTPKEKVTITCSASSSISYIYWFQQKPDQSPKRWIYATFELASGVPSRFSGSGSGTDYTLTINSLEAEDAATYYCHQRSSYPWTFGQGTKLEIKR
notes: IgG; constant regions not specified; also called h10F7.11 (VH.1a-Vk.2a)
Consider B11, for which the midpoint of the response with human IL-17A [2], the EC50, lay at 0.1 nM. In addition, the “Potency (pM)” value with human IL-17A [3] was 326 pM; with cynomolgus monkey IL-17A [4] it was 622 pM. For the same molecule, the Kd is 0.524 nM with human IL-17A [5]; 2.11 nM in the test with human IL-17A/F; 0.773 nM in the test with cynomolgus monkey IL-17A [6]; 3.77 nM with rat IL-17A; 2.21 nM with mouse IL-17A. Moreover, the koff stood at 0.000142 s⁻¹ with human IL-17A [5]; 0.00086 s⁻¹ in the test with human IL-17A/F; 0.000351 s⁻¹ with cynomolgus monkey IL-17A [6]; 0.000667 s⁻¹ with rat IL-17A; 0.000522 s⁻¹ with mouse IL-17A. Moreover, the association rate constant (kon) in the test with human IL-17A [5] was 271000 M⁻¹ s⁻¹; in the test with human IL-17A/F, 408000 M⁻¹ s⁻¹; in the test with cynomolgus monkey IL-17A [6] it was 454000 M⁻¹ s⁻¹; with rat IL-17A, 177000 M⁻¹ s⁻¹; with mouse IL-17A, 236000 M⁻¹ s⁻¹.

B12: IL17-h10F7.13 (antibody, V domains shown)
VH: EVQLVQSGAEVKKPGSSVKVSCKASGYTFTDYEIHWVRQAPGQGLEWIGVNDPESGGTFYNQKFDGRATLTADKSTSTAYMELSSLRSEDTAVYYCTRYYRYESFYGMDYWGQGTTVTVSS
VL: QIVLTQSPSSLSASVGDRVTITCSASSSISYIYWFQQKPGKSPKRWIYATFELASGVPSRFSGSGSGTDYTLTISSLQPEDFATYYCHQRSSYPWTFGQGTKLEIKR
notes: as for B6
For B12, the EC50 with human IL-17A [2] worked out at 0.1 nM. The “Potency (pM)” value in the test with human IL-17A [3] was found to be 242 pM; with cynomolgus monkey IL-17A [4], 429 pM.

What is called EC50 is the concentration that produces a half-maximal response. What is called Kd is a measure of binding affinity in units of concentration. Usually koff stands for the first-order rate constant of dissociation. What is called kon is the rate constant with which the complex forms.

(Values after US20140348834A1 (published 2014).)
